Assay [1] has as its target T1, E. coli wild-type SHMT (GST fusion protein) (E. coli, UniProt P0A825 1-417).
T1 construct: Overexpressed in E. coli as a GST fusion, purified and immobilized on the ELISA plate at 2 ug/ml; not shown: Glutathione-S-transferase (GST) fusion partner
T1 sequence: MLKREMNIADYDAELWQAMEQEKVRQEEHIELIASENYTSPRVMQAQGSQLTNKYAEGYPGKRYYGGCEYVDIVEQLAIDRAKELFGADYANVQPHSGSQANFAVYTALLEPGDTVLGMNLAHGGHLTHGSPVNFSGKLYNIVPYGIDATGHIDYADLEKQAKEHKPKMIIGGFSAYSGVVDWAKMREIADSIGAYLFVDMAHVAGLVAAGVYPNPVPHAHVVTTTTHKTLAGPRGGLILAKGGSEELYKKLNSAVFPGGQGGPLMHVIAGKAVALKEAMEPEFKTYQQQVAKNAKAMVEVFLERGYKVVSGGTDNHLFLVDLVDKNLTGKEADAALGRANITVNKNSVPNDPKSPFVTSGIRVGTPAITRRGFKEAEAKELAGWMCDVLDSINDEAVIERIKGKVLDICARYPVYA
The experiment in a line: ELISA on immobilized GST fusion protein. Background: In an ELISA, binding on a coated surface is turned into a signal by an enzyme label.

Assay [2] has as its target T2, C. difficile iPGM (486-509) (C. difficile).
T2 construct: Expressed as a GST fusion; GST was cleaved off and removed before crystallization
T2 peptide: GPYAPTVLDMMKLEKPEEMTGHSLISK
The experiment in a line: X-ray crystal structure of the Fab-peptide complex.

Another assay concerns the target T3, E. coli SHMT (25-45) (E. coli).
T3 construct: Expressed as a GST fusion; GST was cleaved off and removed before crystallization
T3 peptide: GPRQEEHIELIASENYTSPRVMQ
Description: X-ray crystal structure of the Fab-peptide complex.

The next assay addresses T4, E. coli iPGM (E. coli, UniProt P37689 1-514, limits assumed).
T4 sequence (looked up): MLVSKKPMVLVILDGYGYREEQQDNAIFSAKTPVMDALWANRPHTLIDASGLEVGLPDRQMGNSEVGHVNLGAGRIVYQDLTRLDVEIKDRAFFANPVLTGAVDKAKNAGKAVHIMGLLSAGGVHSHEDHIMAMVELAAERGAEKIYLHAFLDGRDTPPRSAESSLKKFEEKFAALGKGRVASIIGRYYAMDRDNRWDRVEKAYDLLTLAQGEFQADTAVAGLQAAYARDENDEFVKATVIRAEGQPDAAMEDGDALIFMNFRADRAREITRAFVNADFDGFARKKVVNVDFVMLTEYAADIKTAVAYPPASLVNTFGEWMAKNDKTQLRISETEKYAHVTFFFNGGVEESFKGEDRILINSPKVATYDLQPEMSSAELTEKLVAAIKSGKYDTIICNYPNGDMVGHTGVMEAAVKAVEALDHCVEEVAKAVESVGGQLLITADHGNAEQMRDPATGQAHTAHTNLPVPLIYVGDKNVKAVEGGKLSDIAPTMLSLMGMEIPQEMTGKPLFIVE
Description: Western blot. For orientation: A western blot detects proteins with antibodies after separation by electrophoresis.

These results are taken from patent US20250051426A1 (IGALPHAN, published 2025).

B1: RS_H007_L001 (antibody, V domains shown)
VH: EVQLQQSGSELVKSGASVKLSCTVSGFNFTNYYIHWVRQRTEQGLEWIGRIDPENNQTTYAPKFQGKATMTADTSSNTAYLQLTSLTSEDTAVYYCARSTVLDYWGHGTTLTVSS
VL: DVLMTQSPASLSVSLGDRATISCRASQSIVHTNGNTYLEWYLQKPGQSPKLLIYKVSNRFSGVPDRFSGSGSGTDFILKISRVEAEDLGVYYCFQGSHVPPTFGGGTKLEVK
notes: Mainly dimers
Regarding B1, the binding result in assay [1] is recorded as “binds”.

B2: W27G2 antibody (antibody, V domains shown)
VH: EVQLQQSGSELVKSGASVKLSCTVSGFNFTDYYIHWVRQRTEQGLEWIGRIDPENDETTYAPKFQGKATMTADTSSNTAYLQLTSLTSEDTAVYYCARSTVLDYWGHGTTLTVSS
VL: DVLMTQTPLSLPVSLGDQASISCRASQSIVHTNGNTYLEWYLQKPGQSPKLLIYKVSNRFSGVPDRFSGSGSGTDFILKISRVEAEDLGVYYCFQGSHVPPTFGGGTKLEVKR
notes: Mouse IgA produced by a hybridoma; W27G2CHT is the crude hydroxyapatite-purified preparation; W27G2GF is the multimer fraction after gel filtration; also called hybridoma-derived W27G2 antibody; W27G2CHT
With B2, the binding result in assay [1] is listed as “binds”.

B3: RS_H000_L000GR Fab (Fab, V domains shown)
VH: EVQLQQSGSELVKSGASVKLSCTVSGFNFTDYYIHWVRQRTEQGLEWIGRIDPENDETTYAPKFQGKATMTADTSSNTAYLQLTSLTSEDTAVYYCARSTVLDYWGHGTTLTVSS
VL: DVLMTQTPLSLPVSLGDQASISCRASQSIVHTNGNTYLEWYLQKPGQSPKLLIYKVSNRFSGVPDRFSGSGSGTDFILKISRVEAEDLGVYYCFQGSHVPPTFGGGTKLEVK
notes: Fab made by papain digestion of the W27 recombinant IgG expressed in CHO cells; also called IgG W27 Fab
Turning to B3, the binding result (in assay [2]; in the assay with E. coli SHMT (25-45)) was “binds” in each case.

B4: W27 antibody (antibody, V domains shown)
VH: EVQLQQSGSELVKSGASVKLSCTVSGFNFTDYYIHWVRQRTEQGLEWIGRIDPENDETTYAPKFQGKATMTADTSSNTAYLQLTSLTSEDTAVYYCARSTVLDYWGHGTTLTVSS
VL: DVLMTQTPLSLPVSLGDQASISCRASQSIVHTNGNTYLEWYLQKPGQSPKLLIYKVSNRFSGVPDRFSGSGSGTDFILKISRVEAEDLGVYYCFQGSHVPPTFGGGTKLEVK
notes: IgA; also called W27IgA antibody
Turning to B4, in the assay with E. coli iPGM, the binding result is reported as “no binding”.

B5: RS_H000_L001 (antibody, V domains shown)
VH: EVQLQQSGSELVKSGASVKLSCTVSGFNFTDYYIHWVRQRTEQGLEWIGRIDPENDETTYAPKFQGKATMTADTSSNTAYLQLTSLTSEDTAVYYCARSTVLDYWGHGTTLTVSS
VL: DVLMTQSPASLSVSLGDRATISCRASQSIVHTNGNTYLEWYLQKPGQSPKLLIYKVSNRFSGVPDRFSGSGSGTDFILKISRVEAEDLGVYYCFQGSHVPPTFGGGTKLEVK
notes: Mainly dimers by non-reduced SDS-PAGE
For the molecule B5, in assay [1], the binding result is reported as “binds”.

B6: RS_H007_L004 (antibody, V domains shown)
VH: EVQLQQSGSELVKSGASVKLSCTVSGFNFTNYYIHWVRQRTEQGLEWIGRIDPENNQTTYAPKFQGKATMTADTSSNTAYLQLTSLTSEDTAVYYCARSTVLDYWGHGTTLTVSS
VL: DVLMTQSPASMSVSLGDRATISCRSSQSIVHTNGNTYLEWYLQKPGQSPKLLIYKVSNRFSGVPDRFSGSGSGTDFILKISRVEAEDLGVYYCFQGSHVPPTFGGGTKLEVK
notes: Mainly dimers
With B6, the binding result in assay [1] is reported as “binds”.

B7: RS_H007_L005 (antibody, V domains shown)
VH: EVQLQQSGSELVKSGASVKLSCTVSGFNFTNYYIHWVRQRTEQGLEWIGRIDPENNQTTYAPKFQGKATMTADTSSNTAYLQLTSLTSEDTAVYYCARSTVLDYWGHGTTLTVSS
VL: DVLMTQSPASLSVSLGDRATISCRSSQSIVHTNGNTYLEWYLQKPGQSPKLLIYKVSNRFSGVPDRFSGSGSGTDFILKISRVEAEDLGVYYCFQGSHVPPTFGGGTKLEVK
notes: Mainly dimers
Take B7: the binding result in assay [1] was “binds”.

B8: RS_H007_L002 (antibody, V domains shown)
VH: EVQLQQSGSELVKSGASVKLSCTVSGFNFTNYYIHWVRQRTEQGLEWIGRIDPENNQTTYAPKFQGKATMTADTSSNTAYLQLTSLTSEDTAVYYCARSTVLDYWGHGTTLTVSS
VL: DVLMTQSPASLSVSLGDRVTISCRASQSIVHTNGNTYLEWYLQKPGQSPKLLIYKVSNRFSGVPDRFSGSGSGTDFILKISRVEAEDLGVYYCFQGSHVPPTFGGGTKLEVK
notes: Mainly dimers
For B8, the binding result in assay [1] was “binds”.

B9: RS_H000_L005 (antibody, V domains shown)
VH: EVQLQQSGSELVKSGASVKLSCTVSGFNFTDYYIHWVRQRTEQGLEWIGRIDPENDETTYAPKFQGKATMTADTSSNTAYLQLTSLTSEDTAVYYCARSTVLDYWGHGTTLTVSS
VL: DVLMTQSPASLSVSLGDRATISCRSSQSIVHTNGNTYLEWYLQKPGQSPKLLIYKVSNRFSGVPDRFSGSGSGTDFILKISRVEAEDLGVYYCFQGSHVPPTFGGGTKLEVK
notes: Mainly dimers
As for B9, the binding result in assay [1] was “binds”.
